Residue numbers refer to the chain shown, from its start. In names and notes the source's numbering stands.

Test [1] concerns the target T1, recombinant human IL-17 (Peprotech #200-17) (human, UniProt Q16552 20-155). Put plainly: cell-based or functional assay.
For test [2], the target named is T1, recombinant human IL-17 (Peprotech …). Put plainly: cell-based or functional assay. This is another data set of the same source.
The next test concerns the target T2, Human IL17B (human, UniProt Q9UHF5 21-180).
T2 sequence: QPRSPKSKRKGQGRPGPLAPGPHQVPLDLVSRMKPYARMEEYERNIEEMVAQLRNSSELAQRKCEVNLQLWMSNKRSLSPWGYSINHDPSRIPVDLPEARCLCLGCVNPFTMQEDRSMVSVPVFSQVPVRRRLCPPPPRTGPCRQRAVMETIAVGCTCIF
Put plainly: ELISA on coated IL-17 subtype; OD relative to IL-17A binding (100). The method, then: (§1) NUNC® Maxisorp plates (96-well) are coated with recombinant human IL-17 (Peprotech #200-17, www.peprotech.com) at a concentration of 0.5 μg/ml in PBS ([…]). Plates are incubated at 37° C. on an orbital shaker with agitation for 2 hours. Thereafter coating solution is removed and 100 μl/well PBSTC (phosphate buffered saline, 0.05% Tween®20, 2% chicken serum) is added. Plates are incubated at room temperature for 1 hour. […] The second antibody is diluted 1:10000 in PBSTC and plates are incubated for 1 hour at room temperature with agitation. Second antibody is removed, plates are washed three times with 200 μl/well PBST (phosphate buffered saline, 0.05% Tween®20) and 100 μl/well ABTS® (Roche Diagnostics GmbH) is added. Optical density is measured at 405/492 nm in relation to IL-17A binding (set as 100%). Binding to other human IL-17 subtypes (IL-17B, IL-17C, IL-17D, IL-17E and IL-17F) were performed with the same assay format.

A further test concerns the target T3, Human IL17C (human, UniProt Q9P0M4 19-197).
T3 sequence: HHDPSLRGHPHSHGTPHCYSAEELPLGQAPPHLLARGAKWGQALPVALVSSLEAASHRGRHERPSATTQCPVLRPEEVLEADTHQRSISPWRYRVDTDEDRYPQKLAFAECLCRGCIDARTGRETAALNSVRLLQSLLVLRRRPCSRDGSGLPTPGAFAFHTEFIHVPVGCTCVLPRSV
The test is described as above. The method, then: as §1

Another test addresses T4, Human IL17D (human, UniProt Q8TAD2 16-202, limits assumed).
T4 sequence: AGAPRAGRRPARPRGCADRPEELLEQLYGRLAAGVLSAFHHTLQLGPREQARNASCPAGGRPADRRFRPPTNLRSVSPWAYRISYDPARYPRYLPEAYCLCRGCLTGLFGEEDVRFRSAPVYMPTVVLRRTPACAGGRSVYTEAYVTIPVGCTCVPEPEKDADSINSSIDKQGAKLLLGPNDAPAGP
The description is as above. The method, then:
as §1

Another test has as its target T5, Human IL17F (human, UniProt Q96PD4 31-163).
T5 sequence: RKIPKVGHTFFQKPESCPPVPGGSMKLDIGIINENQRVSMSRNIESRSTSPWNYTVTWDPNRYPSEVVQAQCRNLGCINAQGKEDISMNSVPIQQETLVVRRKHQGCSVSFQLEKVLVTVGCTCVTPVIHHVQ
Described as above. The method, then: as §1

For a further test, the target named is T6, IL-17 F/F (human, UniProt Q96PD4 31-163).
T6 construct: read as the homodimer of IL17F
T6 sequence: T5 sequence
Put plainly: SPR (BIAcore T100), antibody captured by anti-human F(ab')2, IL17 as analyte, 25 C. On the procedure: (§2) Around 12000 resonance units (RU) of the capturing system (10 μg/ml goat anti human F(ab′)2; Order Code: 28958325; GE Healthcare Bio-Sciences AB, Schweden) were coupled on a CMS chip at pH 5.0 by using an amine coupling kit supplied by the GE Healthcare. The sample and system buffer was PBS-T (10 mM phosphate buffered saline including 0.05% Tween20) pH 7.4. The bispecific antibody was captured by injecting a 50 nM solution for 1 min at a flow of 10 μl/min. Association was measured by injection human IL17 in various concentrations in solution for 3 min at a flow of 30 μl/min starting with 50 nM in 1:1 dilutions. The dissociation phase was monitored for up to 5 min and triggered by switching from the sample solution to running buffer. The surface was regenerated by two times 60 sec. washing with a glycin pH 2.1 solution at a flow rate of 30 μl/min. Bulk refractive index differences were corrected by subtracting the response obtained from a goat anti human F(ab′)2 surface. Blank injections are also subtracted (=double referencing). For calculation of apparent KD and other kinetic parameters the Langmuir 1:1 model was used.

Another test addresses T7, IL-17 A/F (human, UniProt Q16552 24-155; Q96PD4 31-163).
T7 construct: read as the heterodimer of IL17A and IL17F
Put plainly: SPR (BIAcore T100), antibody captured by anti-human F(ab')2, IL17 as analyte, 25 C, 1:1 model. The method, then: as §2

Another test deals with human IL17A/A (human, UniProt Q16552 24-155, limits assumed). Put plainly: SPR (BIAcore T100), antibody captured by anti-human F(ab')2, IL17 as analyte, 25 C, apparent KD, 1:1 model. On the procedure: as §2
The target in test [3] is T8, Recombinant human TWEAK (R&D Systems; Cat. #1090-TW/CF) (human, UniProt O43508 97-249, limits assumed).
T8 sequence: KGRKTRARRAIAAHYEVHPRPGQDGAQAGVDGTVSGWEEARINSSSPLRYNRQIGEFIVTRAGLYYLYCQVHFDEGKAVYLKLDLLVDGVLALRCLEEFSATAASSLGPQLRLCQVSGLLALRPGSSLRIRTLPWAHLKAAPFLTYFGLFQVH
Put plainly: cell-based or functional assay.

The target of test [4] is T9, human Tweak-Fc (human, UniProt O43508 106-249, limits assumed).
T9 construct: not shown: Fc part
T9 sequence: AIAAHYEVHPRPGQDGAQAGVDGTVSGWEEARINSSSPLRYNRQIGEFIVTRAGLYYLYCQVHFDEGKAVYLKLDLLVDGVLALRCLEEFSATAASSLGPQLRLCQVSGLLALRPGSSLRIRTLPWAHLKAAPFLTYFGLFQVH
Put plainly: SPR (BIAcore T100), TWEAK ligand (Tweak-Fc) amine-coupled on C1 chip, bispecific antibody as analyte, 25 C. From the text:
(§3) The BIAcore® system is well established for the study of molecule interactions. SPR-technology is based on the measurement of the refractive index close to the surface of a gold coated biosensor chip. Changes in the refractive index indicate mass changes on the surface caused by the interaction of immobilized ligand with analyte injected in solution. The mass increases if molecules bind immobilized ligands on the surface, and vice versa, the mass decreases in case of dissociation of the analyte from the immobilized ligand (reflecting complex dissociation). SPR allows a continuous real-time monitoring of ligand/analyte binding and thus the determination of the association rate constant (ka), the dissociation rate constant (kd), and of the equilibrium constant (KD).
(§4) Around 100 resonance units (RU) of TWEAK was immobilized on the C1 chip surface at pH 5.0 using an amine coupling kit supplied by the GE Healthcare. The sample and system buffer was PBS-T (10 mM phosphate buffered saline including 0.05% Tween20) pH 7.4. Association was measured by injection the bispecific antibody in various concentrations in solution for 3 min at a flow of 30 μl/min starting with 50 nM in 1:1 dilutions. The dissociation phase was monitored for up to 10 min and triggered by switching from the sample solution to running buffer. […]

Test [5] deals with T9, human Tweak-Fc. Put plainly: SPR (BIAcore T100), TWEAK ligand (Tweak-Fc) amine-coupled on C1 chip, bispecific antibody as analyte, 25 C, 1:1 model.
From the text: as §3
Around 100 resonance units (RU) of TWEAK was immobilized on the C1 chip surface at pH 5.0 using an amine coupling kit supplied by the GE Healthcare. The sample and system buffer was PBS-T (10 mM phosphate buffered saline including 0.05% Tween20) pH 7.4. Association was measured by injection the bispecific antibody in various concentrations in solution for 3 min at a flow of 30 μl/min starting with 50 nM in 1:1 dilutions. The dissociation phase was monitored for up to 10 min and triggered by switching from the sample solution to running buffer. The surface was regenerated by three times 30 sec. washing with a 3M MgCl2 solution at a flow rate of 30 μl/min. Bulk refractive index differences were corrected by subtracting the response obtained from a blank-coupled surface. Blank injections are also subtracted (=double referencing). For calculation of apparent KD and other kinetic parameters the Langmuir 1:1 model was used.

The target in test [6] is T9, human Tweak-Fc. Put plainly: SPR (BIAcore T100), TWEAK ligand (Tweak-Fc) amine-coupled on C1 chip, bispecific antibody as analyte, 25 C, apparent KD, 1:1 model.
From the text: as §3, §4

T1 sequence (Q16552 20-155 limits assumed): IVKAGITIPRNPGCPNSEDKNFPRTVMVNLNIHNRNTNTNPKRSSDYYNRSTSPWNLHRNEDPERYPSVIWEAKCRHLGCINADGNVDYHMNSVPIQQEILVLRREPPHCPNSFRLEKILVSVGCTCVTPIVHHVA
Chain of human IL17A/A (Q16552 24-155 limits assumed): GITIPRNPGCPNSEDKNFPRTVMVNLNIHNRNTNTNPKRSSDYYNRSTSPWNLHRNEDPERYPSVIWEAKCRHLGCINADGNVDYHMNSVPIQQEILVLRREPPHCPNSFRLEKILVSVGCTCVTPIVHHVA
T7 sequence (Q16552 24-155 limits assumed, one chain of several): as the sequence (Q16552 24-155 limits assumed) above

B1: <IL17> 9C6-2B6-134 (antibody, V domains shown)
VH: EVQLVESGGGLVQPGGSLRLSCAASGFSLDSYGVHWVRQAPGKGLEWVSVIWSDGTTTYNSALKSRFTISRDNSKNTLYLQMNSLRAEDTAVYYCARDTHYRLYYYAMDYWGQGTTVTVSS
VL: DIVMTQSPLSLPVTPGEPASISCRSSQSLVHSNGDTYFHWYLQKPGQSPQLLIYKVSNRFSGVPDRFSGSGSGTDFTLKISRVEAEDVGVYYCSQTTHAPFTFGQGTKLEIK
notes: Humanized variant
For the molecule B1, the “IL-8 Inhibition IC50 (nM) (CCD-25SK cells, IL-17A + TNF-alpha)” value in [1] was found to be 4.5 nM. The “IL-6 IC50 [nM] per valency (IL-17 induced cytokine production, HFLS-RA)” value (shortened to “IL-6 IC50 [nM] per valency”) in test [2] was found to be 3.56 nM. For the same molecule, the “IL-8 IC50 [nM] per valency (IL-17 induced cytokine production, HFLS-RA)” value (from here on “IL-8 IC50 [nM] per valency”) in test [2] amounted to 2.2 nM. For the same molecule, the binding result with Human IL17B, with Human IL17C, with Human IL17D and with Human IL17F was “no binding (tested: 10 µg/ml antibody)” throughout.

B2: <IL17> 9C6-2B6-136 (antibody, V domains shown)
VH: B1 VH with P41T, D72E, S74A, T77S, E88G
VL: B1 VL
notes: Humanized variant with HC136 and LC136
On to B2, for which the “IL-8 Inhibition IC50 (nM) (CCD-25SK cells, IL-17A + TNF-alpha)” value in [1] was found to be 1.8 nM. Further, the “IL-6 IC50 [nM] per valency” value in test [2] was 1.62 nM. In addition, the “IL-8 IC50 [nM] per valency” value in [2] was 1.74 nM. Besides, the binding result in the test with Human IL17B was “no binding (tested: 10 µg/ml antibody)”; with Human IL17C it was “no binding (tested: 10 µg/ml antibody)”; with Human IL17D, “no binding (tested: 10 µg/ml antibody)”; with Human IL17F it was “no binding (tested: 10 µg/ml antibody)”; in the test with IL-17 F/F it was “no binding (tested: IL17 injected starting with 50 nM)”. In addition, the Kd with IL-17 A/F was 0.26 nM; in the test with human IL17A/A, 0.18 nM.

B3: <IL17> 9C6-2B6 (antibody, V domains shown)
VH: QVQLKESGPGLVAPSQSLSITCTVSGFSLDSYGVHWVRQPPGKGLEWLVVIWSDGTTTYNSALKSRLSITKDNSKSQVFLKMNSLQTDDTAIYYCARDTHYRLYYYAMDYWGQGTSVTVSS
VL: DVVMTQTPLSLPVSLGDQASISCRSSQSLVHSNGDTYFHWYLQKPGQSPKLLIYKVSNRFSGVPDRFSGSGSGTDFTLKINRVEAEDLGVYFCSQTTHAPFTFGSGTKLEIK
notes: Mouse hybridoma antibody; also called mouse clone <IL17>9C6-2B6
As for B3, the binding result with Human IL17B, in the test with Human IL17C, in the test with Human IL17D and with Human IL17F was “no binding (tested: 10 µg/ml antibody)” each time.

B4: Bispecific <Tweak-IL-17> #20 antibody (bispecific antibody, human IgG4 S228P, kappa)
heavy 1: EVQLVESGGGLVQPGGSLRLSCAASGFSLDSYGVHWVRQATGKGLEWVSVIWSDGTTTYNSALKSRFTISRENAKNSLYLQMNSLRAGDTAVYYCARDTHYRLYYYAMDYWGQGTTVTVSSASTKGPSVFPLAPCSRSTSESTAALGCLVKDYFPEPVTVSWNSGALTSGVHTFPAVLQSSGLYSLSSVVTVPSSSLGTKTYTCNVDHKPSNTKVDKRVESKYGPPCPPCPAPEFEGGPSVFLFPPKPKDTLMISRTPEVTCVVVDVSQEDPEVQFNWYVDGVEVHNAKTKPREEQFNSTYRVVSVLTVLHQDWLNGKEYKCKVSNKGLPSSIEKTISKAKGQPREPQVCTLPPSQEEMTKNQVSLSCAVKGFYPSDIAVEWESNGQPENNYKTTPPVLDSDGSFFLVSRLTVDKSRWQEGNVFSCSVMHEALHNHYTQKSLSLSLGK
heavy 2: not shown
light: DIVMTQSPLSLPVTPGEPASISCRSSQSLVHSNGDTYFHWYLQKPGQSPQLLIYKVSNRFSGVPDRFSGSGSGTDFTLKISRVEAEDVGVYYCSQTTHAPFTFGQGTKLEIKRTVAAPSVFIFPPSDEQLKSGTASVVCLLNNFYPREAKVQWKVDNALQSGNSQESVTEQDSKDSTYSLSSTLTLSKADYEKHKVYACEVTHQGLSSPVTKSFNRGEC
notes: Bivalent one-armed scFab format, IgG4 S228P/L235E knobs-into-holes
Consider B4, for which, in test [2], the “IL-6 IC50 [nM] per valency” value amounted to 1.38 nM and the “IL-8 IC50 [nM] per valency” value turned out to be 0.9 nM. The “IC50 (nM) per valency, Tweak induced HFLS proliferation (CellTiter Glo)” value in test [3] is 0.08 nM. In addition, the binding result with IL-17 F/F is “no binding (tested: IL17 injected starting with 50 nM)”. For the same molecule, the Kd with human IL17A/A is less than 0.2 nM. For the same molecule, the “T½” value with human Tweak-Fc [4] is 3.63 h. In the test with human Tweak-Fc [5], this molecule returned a koff of 5.31e-05 s⁻¹ and a kon of 810000 M⁻¹ s⁻¹. Also, in the test with human Tweak-Fc [6], the Kd was 0.0656 nM.

For the origin of these results see patent US20150132307A1 (Hoffmann-La Roche, published 2015).
